Twelve molecules from patent EP4039268A1 (IMBA-Institut für Molekulare Biotechnologie GmbH, dated 2022) can be followed below.

First the molecules themselves.
B1: Siglec15 CRD-mouse IgG2a-Fc fusion protein (Fc fusion)
chain: PAQRWSMQVPAEVNAEAGDAAVLPCTFTHPHRHYDGPLTAIWRSGEPYAGPQVFRCTAAPGSELCQTALSLHGRFRLLGNPRRNDLSLRVERLALADSGRYFCRVEFTGDAHDRYESRHGGGSGGGSGGGS
B2: Clec10a CRD-mouse IgG2a-Fc fusion protein (Fc fusion)
chain: CCPLHWTEHEGSCYWFSESEKSWPEADKYCRLENSHLVVVNSLEEQNFLQNRLANVVSWIGLTDQNGPWRWVDGTDFEKGFKNWAPLQPDNWFGHGLGGGEDCAHITTGGPWNDDVCQRTFRWICEMGGGSGGGSGGGS
B3: Clec1b CRD-mouse IgG2a-Fc fusion protein (Fc fusion)
chain: HGDSCYGFFRRNLTWEESKQYCTEQNATLVKTASQSTLDYIAERITSVRWIGLSRQNSKKDWMWEDSSVLRKNGINLSGNTEENMNCAYLHNGKIHPASCKERHYLICEGGGSGGGSGGGS
B4: Clec11a CRD-mouse IgG2a-Fc fusion protein (Fc fusion)
chain: LGHKCFLLSRDFETQAAAQARCKARGGSLAQPADRQQMDALSRYLRAALAPYNWPVWLGVHDRRSEGLYLFENGQRVSFFAWHRAFSLESGAQPSAATHPLSPDQPNGGVLENCVAQASDDGSWWDHDCERRLYFVCEGGGSGGGSGGGS
B5: Clec12b CRD-mouse IgG2a-Fc fusion protein (Fc fusion)
chain: YGNSCYYFSINEEKSWSDSRKDCIDKNATLVKIDSTEERDLLQSQLSLTFSFFWLGLSWNSSGRNWLWEDGSFPPPTLFSDKELASFNGSRDCAYFERGNIYASRCSAEIPWICEGGGSGGGSGGGS
B6: Clec14a CRD-mouse IgG2a-Fc fusion protein (Fc fusion)
chain: ASGACYSLHHATFKRRAAEEACSLRGGTLSTVHSGSEFQAVLLLLRAGPGPGGGSKDLLFWVALERSISQCTQEKEPLRGFSWLHPDSEDSEDSPLPWVEEPQRSCTVRKCAALQATRGVEPAGWKEMRCHLRTDGYLCKYGGGSGGGSGGGS
B7: Clec2e CRD-mouse IgG2a-Fc fusion protein (Fc fusion)
chain: FGNKCFYFSEDMGNWTFSQSSCIALDAHLALFDSLEELNFLKRYKGASDHWIGLHRESSEHPWIWTDNTEYNNLVLTRGGGECAYLSNRGIYNSSGDIHKKWICNGGGSGGGSGGGS
B8: Thbd CRD-mouse IgG2a-Fc fusion protein (Fc fusion)
chain: VEHECFALFQGPATFLDASQACQRLQGHLMTVRSSVAADVISLLLSQSSMDLGPWIGLQLPQGCDDPVHLGPLRGFQWVTGDNHTSYSRWARPNDQTAPLCGPLCVTVSTATEAAPGEPAWEEKPCETETQGFLCEFGGGSGGGSGGGS
B9: Cd72 CRD-mouse IgG2a-Fc fusion protein (Fc fusion)
chain: CCPCGWIPYQERCFYISHTLGSLEESQKYCTSLSSKLAAFDEPSKYYYEVSLPSGLEELLDRSKSYWIQMSKKWRQDSDSQSRHCVRIKTYYQKWERTISKCAELHPCICESGGGSGGGSGGGS
B10: Clec4g CRD-mouse IgG2a-Fc fusion protein (Fc fusion)
chain: FQGSCYYFSETQATWDTAQSYCGGQGAHLVIVRGLNEQGFLSQHTRGRGYWLGLRAVRHLNKIQGYRWVDGASLNFSHWNSGEPNDSRGHEDCIMMLHSGLWNDAPCTNERDGWICGGGSGGGSGGGS
B11: Cd22 CRD-mouse IgG2a-Fc fusion protein (Fc fusion)
chain: SANDWTVDHPQTLFAWEGACIRIPCKYKTPLPKARLDNILLFQNYEFDKATKKFTGTVLYNATKTEKDPESELYLSKQGRVTFLGNRIDNCTLKIHPIRANDSGNLGLRMTAGTERWMEPIHLNVSEGGGSGGGSGGGS
B12: Asgr2 CRD-mouse IgG2a-Fc fusion protein (Fc fusion)
chain: CCPVNWVEFGGSCYWFSRDGLTWAEADQYCQLENAHLLVINSREEQDFVVKHRSQFHIWIGLTDRDGSWKWVDGTDYRSNYRNWAFTQPDNWQGHEQGGGEDCAEILSDGHWNDNFCQQVNRWVCEKGGGSGGGSGGGS

T1 sequence (Q9BYF1 18-740 limits assumed): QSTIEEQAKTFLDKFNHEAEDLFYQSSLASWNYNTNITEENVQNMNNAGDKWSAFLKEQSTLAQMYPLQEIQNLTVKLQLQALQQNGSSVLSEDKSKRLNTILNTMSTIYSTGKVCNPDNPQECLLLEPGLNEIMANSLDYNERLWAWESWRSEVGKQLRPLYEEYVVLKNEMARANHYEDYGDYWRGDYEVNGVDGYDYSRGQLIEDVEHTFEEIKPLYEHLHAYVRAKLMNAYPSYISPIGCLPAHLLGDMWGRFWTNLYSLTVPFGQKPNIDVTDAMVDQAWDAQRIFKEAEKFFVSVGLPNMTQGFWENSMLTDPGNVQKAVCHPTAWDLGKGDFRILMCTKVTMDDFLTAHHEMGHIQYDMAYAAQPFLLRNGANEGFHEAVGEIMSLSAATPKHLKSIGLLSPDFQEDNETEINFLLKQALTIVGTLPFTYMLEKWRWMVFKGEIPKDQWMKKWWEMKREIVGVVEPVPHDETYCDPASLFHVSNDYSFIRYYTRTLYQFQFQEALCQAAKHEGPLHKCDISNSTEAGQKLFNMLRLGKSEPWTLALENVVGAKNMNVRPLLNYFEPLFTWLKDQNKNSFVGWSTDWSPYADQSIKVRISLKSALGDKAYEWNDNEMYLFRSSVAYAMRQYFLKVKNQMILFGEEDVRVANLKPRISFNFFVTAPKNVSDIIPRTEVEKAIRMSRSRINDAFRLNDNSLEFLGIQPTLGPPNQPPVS

The first assay concerns the target T1, human recombinant soluble ACE2 (human, UniProt Q9BYF1 18-740).
T1 construct: also called hrsACE2
Description: ELISA. In general terms: An ELISA detects its analyte on a solid surface through an enzyme-linked reagent.
In the case of B1, the binding result is recorded as “no binding (tested: 10 µg/ml)”.

On to B2, for which the binding result was “no binding (tested: 10 µg/ml)”.

B3: the binding result was “no binding (tested: 10 µg/ml)”.

Consider B4, for which the binding result is given as “no binding (tested: 10 µg/ml)”.

Consider B5, for which the binding result is recorded as “no binding (tested: 10 µg/ml)”.

As to B6, the binding result was “no binding (tested: 10 µg/ml)”.

With B7, the binding result is “no binding (tested: 10 µg/ml)”.

Regarding B8, the binding result is reported as “no binding (tested: 10 µg/ml)”.

As to B9, the binding result is listed as “no binding (tested: 10 µg/ml)”.

Regarding B10, the binding result is listed as “no binding (tested: 10 µg/ml)”.

Regarding B11, the binding result is “no binding (tested: 10 µg/ml)”.

As for B12, the binding result is listed as “no binding (tested: 10 µg/ml)”.

For the next assay, the target named is T2, full-length trimeric SARS-CoV-2 Spike protein (Spike-H6) (SARS-CoV-2, N-glycosylated (22 N-glycosylation sites)).
T2 construct: also called trimeric Spike; full-length Spike-H6
The assay can be described thus: ELISA screen.
Take B1: the “Mean normalized OD” value turned out to be 0.008 OD.

Consider B2, for which the “Mean normalized OD” value was 0.069 OD.

With B3, the “Mean normalized OD” value came to 0.024 OD.

Consider B4, for which the “Mean normalized OD” value was determined as 0.032 OD.

As for B5, the “Mean normalized OD” value is 0.002 OD.

As for B6, the “Mean normalized OD” value turned out to be 0.012 OD.

As to B7, the “Mean normalized OD” value is 0.017 OD.

For B8, the “Mean normalized OD” value amounted to 0.003 OD.

On to B9, for which the “Mean normalized OD” value is 0.033 OD.

On to B10, for which the “Mean normalized OD” value was 1.68 OD.

With B11, the “Mean normalized OD” value was 0.027 OD.

As to B12, the “Mean normalized OD” value stood at 0.003 OD.

A further assay deals with T3, monomeric SARS-CoV-2 receptor binding domain (RBD-H6) (SARS-CoV-2, UniProt P0DTC2 319-541).
T3 construct: Made in HEK293-6E cells; also called RBD Spike; monomeric RBD
Description: ELISA screen.
Regarding B1, the “Mean normalized OD” value stood at 0.001 OD.

Consider B2, for which the “Mean normalized OD” value was 0.064 OD.

For B3, the “Mean normalized OD” value came out at 0.03 OD.

B4: the “Mean normalized OD” value is 0.011 OD.

Regarding B5, the “Mean normalized OD” value was determined as 0.001 OD.

As for B6, the “Mean normalized OD” value is 0.004 OD.

With B7, the “Mean normalized OD” value was determined as 0.016 OD.

As for B8, the “Mean normalized OD” value is 0 OD.

For B9, the “Mean normalized OD” value stood at 0.015 OD.

In the case of B11, the “Mean normalized OD” value was found to be 0.004 OD.

B12: the “Mean normalized OD” value turned out to be 0.013 OD.

For a further assay, the target named is T1, human recombinant soluble ACE2. The assay can be described thus: ELISA screen.
B1: the “Mean normalized OD” value was 0.011 OD.

For B2, the “Mean normalized OD” value worked out at 0.125 OD.

For the molecule B3, the “Mean normalized OD” value amounted to 0.04 OD.

With B4, the “Mean normalized OD” value is 0.17 OD.

Regarding B5, the “Mean normalized OD” value amounted to 0.007 OD.

B6: the “Mean normalized OD” value amounted to 0.029 OD.

Consider B7, for which the “Mean normalized OD” value stood at 0.066 OD.

As to B8, the “Mean normalized OD” value stood at 0.001 OD.

Consider B9, for which the “Mean normalized OD” value was found to be 0.044 OD.

Consider B10, for which the “Mean normalized OD” value is 0.04 OD.

For the molecule B11, the “Mean normalized OD” value worked out at 0.006 OD.

Take B12: the “Mean normalized OD” value amounted to 0.034 OD.

For a further assay, the target named is T2, full-length trimeric SARS-CoV-2 Spike …. Description: inhibition of Spike binding to Vero E6 cells, AFM.
The molecule B10 registered a Ki of 35 to 70 nM.

The next assay shares this target. The assay can be described thus: AFM single molecule force spectroscopy, Evans model.
Regarding B10, the koff was 0.037 s⁻¹.

For a further assay the target is unchanged. Description: SPR, Spike immobilized, bivalent analyte model, first binding step. In general terms: SPR reads the build-up and loss of mass on a sensor chip optically.
In turn, B10 gave a Kd of 1620 nM, a koff of 0.0997 s⁻¹ and a kon of 61700 M⁻¹ s⁻¹.

The term Ki denotes a dissociation constant, usually derived from enzyme kinetics or from competition with a known ligand. One may read the koff as a measure of how fast the partners let go of each other. Read a low koff as slow dissociation. In general, kon refers to the rate constant with which the complex forms.
